Columns and labels:
Test in all cases: EMSA; 5 mM Ca2+; EMSA: 40 mM Tris-acetate pH 8.3, 0.1 mg/ml BSA, 10% glycerol, 5 mM CaCl2 or 0.1 mM EDTA, 1 nM DNA, room temperature, 15 min
BsaWI R259A = biological target: T1, BsaWI R259A (UniProt Q6UQ65 1-272, R259A); conditions: protein: recombinant; chain copies: 2; label: 33P; blunt
T1 sequence: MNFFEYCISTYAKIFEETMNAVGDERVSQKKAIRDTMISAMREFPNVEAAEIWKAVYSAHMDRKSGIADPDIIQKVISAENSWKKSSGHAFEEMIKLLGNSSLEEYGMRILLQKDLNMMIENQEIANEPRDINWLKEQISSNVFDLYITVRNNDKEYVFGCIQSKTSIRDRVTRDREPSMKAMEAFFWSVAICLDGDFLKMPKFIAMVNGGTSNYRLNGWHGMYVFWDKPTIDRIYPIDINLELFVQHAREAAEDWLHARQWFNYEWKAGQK

BsaWI R130A&R259A = biological target: T2, BsaWI R130A&R259A (UniProt Q6UQ65 1-272, R130A;R259A); conditions: protein: recombinant; chain copies: 2; label: 33P; blunt
T2 sequence: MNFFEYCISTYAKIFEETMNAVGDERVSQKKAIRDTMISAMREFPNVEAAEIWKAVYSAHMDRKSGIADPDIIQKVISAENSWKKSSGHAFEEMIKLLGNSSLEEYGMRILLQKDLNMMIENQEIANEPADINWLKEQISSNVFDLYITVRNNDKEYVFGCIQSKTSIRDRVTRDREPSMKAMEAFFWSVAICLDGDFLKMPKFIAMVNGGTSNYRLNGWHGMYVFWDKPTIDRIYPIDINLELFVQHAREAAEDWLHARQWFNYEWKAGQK

BsaWI E128A = biological target: T3, BsaWI E128A (UniProt Q6UQ65 1-272, E128A); conditions: protein: recombinant; chain copies: 2; label: 33P; blunt
T3 sequence: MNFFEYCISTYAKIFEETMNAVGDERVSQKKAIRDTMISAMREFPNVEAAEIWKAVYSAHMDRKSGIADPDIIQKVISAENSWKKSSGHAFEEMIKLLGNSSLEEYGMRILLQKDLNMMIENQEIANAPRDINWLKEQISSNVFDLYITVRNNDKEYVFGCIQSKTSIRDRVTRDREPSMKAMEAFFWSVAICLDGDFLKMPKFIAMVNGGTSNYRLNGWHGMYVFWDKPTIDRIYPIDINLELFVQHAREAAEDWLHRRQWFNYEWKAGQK

BsaWI K85A = biological target: T4, BsaWI K85A (UniProt Q6UQ65 1-272, K85A); conditions: protein: recombinant; chain copies: 4; label: 33P; blunt
T4 sequence: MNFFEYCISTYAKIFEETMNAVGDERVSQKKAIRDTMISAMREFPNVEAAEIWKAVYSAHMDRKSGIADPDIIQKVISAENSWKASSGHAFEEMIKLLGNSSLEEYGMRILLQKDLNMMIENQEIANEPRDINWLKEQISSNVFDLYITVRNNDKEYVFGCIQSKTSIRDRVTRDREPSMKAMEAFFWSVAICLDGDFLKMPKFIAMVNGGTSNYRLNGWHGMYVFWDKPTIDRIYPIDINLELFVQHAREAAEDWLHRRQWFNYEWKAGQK

BsaWI D175A = biological target: T5, BsaWI D175A (UniProt Q6UQ65 1-272, D175A); conditions: protein: recombinant; chain copies: 4; label: 33P; blunt
T5 sequence: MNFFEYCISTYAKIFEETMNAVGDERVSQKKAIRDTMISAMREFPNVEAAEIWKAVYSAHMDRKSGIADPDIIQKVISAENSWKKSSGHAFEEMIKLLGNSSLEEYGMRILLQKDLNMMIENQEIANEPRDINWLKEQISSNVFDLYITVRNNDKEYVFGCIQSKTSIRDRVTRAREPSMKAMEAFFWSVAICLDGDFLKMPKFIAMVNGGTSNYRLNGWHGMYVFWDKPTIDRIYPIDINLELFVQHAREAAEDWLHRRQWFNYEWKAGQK

B1: SP (dsDNA)
DNA 1: GCCTTTCGGTTTACCGGTGTCATTCCGCTG
DNA 2: CAGCGGAATGACACCGGTAAACCGAAAGGC
Kd (BsaWI R259A): 2 ± 0.3 nM | Kd (BsaWI R130A&R259A): 2.7 ± 0.5 nM | Kd (BsaWI E128A): 2.19 ± 0.4 nM | Kd (BsaWI K85A): 229 ± 9.1 nM | Kd (BsaWI D175A): 6.1 ± 2.3 nM
